Measured values as given in the nanobody polyreactivity screen of Harvey et al. (2022).

Test: yeast display, Sf9 membrane polyspecificity reagent, FACS + sequencing; frameworks hold sequencing errors
Summary of the method: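 Genes from sorted yeast were amplified by colony PCR, read by MiSeq 2 × 250 sequencing and filtered on CDR length. These cells carried a synthetic nanobody library in Saccharomyces cerevisiae BJ5465 and were sorted by FACS into low and high (top ~1%) gates on anti-HA and streptavidin fluorescence. Polyreactivity is labelled according to the gate of origin.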

Sequence	polyreactivity (PSR sort gate)
QVQHVESGGGLVQAGGSLRLSCAASGFIFGYYTMGWSRQAPGKERELVAAITSGDSTNYADSVKGRFTISRDNAKNTVYLQMNSLKPEDTAVYYCNARGLFTWMDYWGQGTQVTVSS	low polyreactivity
QVQLVESGGGLVQAGGSLRLSCAASGSIFEGNTMGWYRQAPGKERELVASISSTANTYYADSVKGRFTLSRDNAKKNVYLQMNSLKPEDTAVYYCNVARYFLVPVVDDNYWGQGTQVTVSS	low polyreactivity
QVQLVESWGALVQAGGSLRLSCAASRRTFALNAMGWYRQAPGKETELVAAITSSGGSSYYADSVKGRFTISRDIAKNSVYLLMNSLNPVDTAVYYCAADRHYGTEYAYDYWGEGTQVTVSS	low polyreactivity
QVQLVESGGGLVQAGGSLRLSCAASGSTFGSYAMRWYRQAPGKERELVAAITASGGSTYYADSVKGRFTISRDNAKNTVYLQMNSLKPEDTAVYYCAADTTYIPLSIEYDYWGQGTQVTVSS	low polyreactivity
QVQLVESGGGLVQAGGSLRLSCAASGFTFPHYAMGWYRQAPGKERELVAVISWSGSSTYYADSVKGRFTISRDNAMNTVYLQMNSLKPEDTAVYYCNTRKLYQVDYDYWGQGTQVTVSS	high polyreactivity
QVQLVESGGGLVQAGGSLRLSCAASGRTFYYNAMGWYRQAPGKERELVAAISSGDSTYYADSVKGRFTISRDNAKNTVYLQMNSLKPEDTAVYYCNKYVAYDYWGQGTQVTVSS	low polyreactivity
QVQLVESGGGLVQAGGSLRLICAASGSIFPFYAMGWYRQEPGKERELVAAITYSGGRTYYADSVKGRFTISRDNAKNTVYLQMNSLKPEDTAVYYCAVVVIFVRYGYWGQGTQVTVSS	low polyreactivity
QVQLVESGGGLVQPGGSLRLSCAASGRIFYRYAMGWYRQAPGKERELVAAITARGGSTYYADSVKGRFTISRDNAKNTVYLQMNCLKPEDTAVYYCNKLLSNPYYPSYDYWGQGTQVTVSS	high polyreactivity
QVQLVESGGGLVQAGGSLRLRCAASGGIFGFYAMGWYRQAPGKERELVAAISWGGGSTYYADSVKGRFTIARDNAKNTVFVQMNSLKPEDTAVYYCAADPALTKEYGYWGQGTQVTVSS	low polyreactivity
QVQLVESGGGLVQAGGSLRLSCAASGSIFNYYVMGWYRQAPGKERELVAGIRWNGGSTYYADSVKGRFTISRDNAKNTVYLQMNSLKPEDTAVYYFAAQAWWGYYSRGPMDYWGQGTQVTVSS	low polyreactivity
QVQLVESGGGLVQAGGSLRLSCAASGSTFPRNAMGWYRQAPGKERELVAAISYSGGRTYYADSVKGRLRISRDNAKNTVYLQMNSLKPDDTAVYYCAASPGVGDSRYYYWGQGTQVTVSS	high polyreactivity
QVQLVDSGGGLVQAGGRLRLSCAASGRTFSKYAMGWYRQAPGKERELVASITRSGGSTNYADTVKGRFTISRDNAKNTVYLQKNSLKPEDTAVYYCRRKLGRTHDTGFDYWGQGTQVTVSS	low polyreactivity
QVQLVESWGGLVQAGGSLRLSCAASGFTFDNYPMGWYRQAPGKERELVAAIINSGGSTYYADSVKGRFTISRDNAKNTVYLQMNSLKPEDTAVYYCAARILPFRQWYRTYEYWGQGTQVTVSS	high polyreactivity
QVQLVESGGGLVQAGGSLRLSCAASGRTFPGNAMGWYRQAPGKERELVAAINSRGSTYYADSVKGRFTISRDNAKHTVYLKMNSLKPEDTAVYYSAAYFGHYWRYYYWGQGTQVNVSS	high polyreactivity
QVQLVESGGGLVQAGGSLRLSCAASGRIFYRYTMGWYRQAPGKERELVAAITRSGSSTRYADSVKGRFTISRDYAKNTVYLQMNSLKPEDTAVYYCATRVTSRTSGFDYWGQGTQVTVSS	high polyreactivity
QVQLVESGGGLVQAGGSLRLSSAASGFTFDYNTMGWDRQAPGKERELVAGISRGGGSTYYADSVKGRFTISRDNAKNTVYLQMNSLKPEDTAVYYCNTVLKRQRKNEYWGQGTQVTVSS	high polyreactivity
QVQLVESGGGLVQAGGSLRISCAASGRTFCNNAMGWYRQAPGKERELVAAITSTGSRTYYADSVKGRFTISRDNAKNTVYLQMNSLKPEDTAVYYCNRVSHLDYYWGQGTQVTVSS	high polyreactivity
QVQLVESGGGLVQAGGSLRLSCAASGIICGDNALGLYRQAPGKEWELVAAISSSGTSTNYADSVKGRFTISRDNAKNTVYLQMNSLKPEETAVYYCAKDVLPPYPQSRSGGDYWGQGTQVTVSS	low polyreactivity
QVQLVESGGGLVQAGGSLRLSCAASGFTFNRYAMGWYRQAPGKERELVAAISWSGTSTYYADSVKGRFTISRDNAKNTVYLQMNSLKPEDTAVYYCATRQTHSYDYWGQGTQVTVSS	high polyreactivity
QVQLVESAGGLVQAGGSLRLSCPASGLTFGSYALGWYRQAPGKEREFVAAISWRGGSTYYADSVKGRFTISRDNAKNTVYLQMNSLKPEDTAVYYCAAPVTYGGSPYKYYYWGQGTQVTVSS	high polyreactivity
QVQLVESGGGLVQAGGSLRLSCAASGFIFPVYTKGWYRQAPGKERELVAAITQIGGSTHYADSVKGRFTISRDNAKNTVYLQMNSLKPEDTAVDYCNAVPSYGTEYDYWGQGTQVTVSS	low polyreactivity
QVQLEESGGVLVQAGGSLRLTCAAAGSILAYNSMGWYREAPGKERELVAAISWTGRTYYADSVKGRFTISRDNEKNTVYLQMNSLIPEDTAVYYCNARGRQRSRGSQIYDYWGQGTQVTVSS	high polyreactivity

Sequence	polyreactivity (PSR sort gate)
QVQLVESGGGLVQAGGSLRLSCAASGFTFWYNDMGWYRQAPGKEREFVAAITTSGGNTYYADSVKGRFTISRDNAKNTVYLNMNSLIPEDTAVYYCAAEEGSSDATGYDYWGQGTQVTVSS	low polyreactivity
QVQLVESGGGLDQAGGSLRLSCAASGSIFASNAMGWYRQAPGKERELVAAINSGDSTNYADSVKGRFTISRDNAKNTVYLQMNSLKPEDTAVYYCARGLEERYDYWGQGTQVTVSS	low polyreactivity
QVQLVESGGGLVQAGGSLRLSCAASGFTFSAYTMGWYRQAPGKERELVAAINWSGANTYYADSVKGRFTISRDNAKNTVYLQMNSLKPEDTAVYYCNAEDDYTYDLSFGGYKYDYWGQGTQVTVSS	low polyreactivity
QVQLVESGGGLVQAGGSLRLSCAASGRTFRYYAMGWYRQAPGKEREFVAAITSRSSRTYYADSVKGRFTISRDNAKNTVYLQMNSLKPEDTAVYYCNADYRRYPEFDYWGQGTQVTVSS	high polyreactivity
QVHLVESGGGLVQAGGSLRLSCAASGLTFGVFAMGWYRQAPGKERELVAAITWRGDTTYYADSVKGRFTISRDNAKNTVYLQMNSLKPEDTAVYYCNAVFFYHGTKPAFISHDYWGQGTQVTVSS	low polyreactivity
QVQLVESGGGLVQAGGSLRLSCAASGYIFGYYAMGWYRQAPGKERELVAAISTDGSTDYADSVKGRFTISRDNAKKTVYLQMNSLKPEDTAVYYCAKELFIVTNGVYIYDSWGQGTQVTVSS	low polyreactivity
QVQLVESGGGLVQAGGSLRLSCAASGRTFSYYAMGWYRQAPGKERELVARITYRGGRTYYADSVKGRFTISRDNAKNTVYLQMNSLKPEDTAVYYCNADAINKRGGLDYWGQGTQVTVSS	high polyreactivity
QVQLVESGGGLVQAGGSLRLSCAASGFTFQGNAMGWYRQAPGKERELVAAISWSGGRTYYADSVKGRFTISRDNAKNTVYCQMNSLKPEDTAVYYCAIVYKDVSGDDYWGQGTQVTVSS	low polyreactivity
QVQLVESGGGLVQAGGSLRLSCAASGFIFVANAMGWYRQAPGKERELVAAISFSGGRTYYADSVKGRFTISRDNAKNTVYLQMNSLKPEDTAVYYCNTVSEWWAGDHPDAEFDYWGQGTQVTVSS	low polyreactivity
QVQLVESGGGLVQAGGSLRLSCAASGSTFAYYAMGWYRPAPGTERELVAAISSGGSTYYADSVKGRFTISRDNAKNTVYLQMNSLKPEDTAVYYCAADAVKASVSYIVPYAAYDYWGQGTQVTVSS	low polyreactivity
QVQRVESGGGLVQAGGSLRLSSAASGSTFQEYAMGWYSQAPGKERELVASIRWSGGRTYYADSVKGRFTISRDQAKNTVELQMKSLKPEDTAVYYCNKDYYITLHESDGNGGEMDYWGQGTQVTVSS	low polyreactivity
QVQLVESGGGLVQAGGSLRLSCAASGSIFSGYAMGWYRQAPGKERELVAAISGSGGSTFYADSVKGRFTISRDNAKNTVYLQMNSLKPEDTAVYYCAARRIAPYGRYDYWGQGTQVTVSS	low polyreactivity
QVQLVESWGGLVQAGGSLRLSCAASGSTFRPYAMGWYRQAPGKERELVAAFRSGRTSYADSVKGRFTISRDNAKNTVYLQMNSLKPEDTAVYYCAKASRGGYYWGQGTQVTVSS	high polyreactivity
QVQLVESGGGLVQAGGSLRLSCAASGSTFWVNTMGWYRQAPGKERELVAAISSNGGSTYYADSVKGRFTISRDNAKNTVYLQMNSLKPEDTAVYYCATRQSWSDYYLNVDYDYRGQGTQVTVSS	low polyreactivity
QVQLVESGGGLVQAGGSLRLSCAASGSIYHYYAMGWYRQAPGKERELVAAISWSGGRTNYADSVKGRFTISRDNAKNTVYLQMNSLKPEDTAVYYCAARARYPNWTYYYWGQGTQVTVSS	high polyreactivity
QVQLVESGGGLVQAGGSLRFSCAASGSSFGANTMGWYRQAPGKERELVAGITSGARTYYADSVKGRFTISRDNAKNTVYLQMNSLKPEDTAVYYCAAKYAWRRYGYWGQGTQVTVSS	high polyreactivity
QVQLVESGGGLVQAGGSLRLSCAASGRTFVLNAMGWYRQAPGKERELVAAITLGGGSTYADSVKGRFTISRDNAKNTVYLQMNSLKPEDTAVYYCAADFHYPDFEYWGQGTQVTVSS	low polyreactivity
QVQLVESGGGSLRLSCAASGLTFGGYTMGWSRQAPGKERELFAAISSSDSTNYADSVKGRFTISRDNAKNTVYLQMNSLKPEDTAVYYCAADSGQWCRFSSFGDEGDSWGQGTQVTVSS	low polyreactivity
QVQLVESGGGLVQAGGSLRLSCAASGSTFSGYAMGWYRQAPGKERELVAAITSGGGTYYADSVKGRFTISRDNAKNTVYLQMNSLKPEDTAVYYCAADGIARAYVLLDAYDFLYDYWGQGTQVTVSS	low polyreactivity
QVQHVESGGGLVQAGRSLRLSCAASGSIVGNNAMGWYRQAPGKERELVAVITDGGNTYYADSVKGRFTISRDNAKNTVYLEMNSLKPEDTAVYYCNADWWGDSDYWGQGTQVTVSS	low polyreactivity
QVLLVESGVGLVQAGGSLRLSCASSGFTFYRNAMGWYRQAPGKERELVASISRSGGSTYYADSVKGRFTISRDNAKNTVYLQMNSLKPEDTAVYYCAADLWWIYPHKYYYWGQGTQVTVSS	high polyreactivity
